Results published in patent publication US20110280858A1.

Target: Lucilia sericata larval excretions/secretions (ES), Batch B: proteinase activities within ES
Assay: cell-based or functional assay

Substance: soybean trypsin inhibitor (STI) immobilized on cross-linked 4% beaded agarose (from UniProt P01070 25-205)
- residual activity of STI-treated ES against H-Leu-AMC without further inhibitor (FIG. 10A), compared with untreated ES (percent of untreated ES): 25.7
- residual activity of STI-treated ES against H-Leu-AMC, percentage of untreated ES (percent of untreated ES): 28.4
- residual activity of STI-treated ES against Tosyl-Gly-Pro-Arg-AMC-HCl, percentage of untreated ES (percent of untreated ES): 0.5
- residual activity of STI-treated ES against Z-Phe-Arg-AMC-HCl, percentage of untreated ES (percent of untreated ES): 1.8
